Experimental data: article PMC6092318, “Keap1–MCM3 interaction is a potential coordinator of molecular machineries of antioxidant response and genomic DNA replication in metazoa” (Scientific Reports, 2018)

B2: FLAG-MCM3 (mouse, wild type, baculovirus) (natural protein, UniProt P25206 1-812, looked up)
chain: MAGTVVLDDVELREAQRDYLDFLDDEEDQGIYQNKVRELISDNQYRLIVSVNDLRRKNEKRANRLLNNAFEELVAFQRALKDFVASIDATYAKQYEEFYIGLEGSFGSKHVSPRTLTSCFLSCVVCVEGIVTKCSLVRPKVVRSVHYCPATKKTIERRYSDLTTLVAFPSSSVYPTKDEENNPLETEYGLSVYKDHQTITIQEMPEKAPAGQLPRSVDVILDDDLVDKVKPGDRIQVVGTYRCLPGKKGCYTSGTFRTVLIACNVKQMSKDIQPAFSADDIAKIKKFSKTRSKDVFEQLARSLAPSIHGHDYVKKAILCLLLGGVERELENGSHIRGDINILLIGDPSVAKSQLLRYVLCTAPRAIPTTGRGSSGVGLTAAVTTDQETGERRLEAGAMVLADRGVVCIDEFDKMSDMDRTAIHEVMEQGRVTIAKAGIHARLNARCSVLAAANPVYGRYDQYKTPMENIGLQDSLLSRFDLLFIMLDQMDPEQDREISDHVLRMHQYRAPGEQDGDALPLGSSVDILATDDPDFTQDDQQDTRIYEKHDSLLHGTKKKKEKMVSAAFMKKYIHVAKIIKPTLTQESAAYIAEEYSRLRSQDSMSSDTARTSPVTARTLETLIRLATAHAKARMSKTVDLQDAEEAVELVQYAYFKKVLEKEKKRKKASEDESDLEDEEEKSQEDTEQKRKRRKTHAKDGESYDPYDFSEAETQMPQVHTPKTDDSQEKTDDSQETQDSQKVELSEPRLKAFKAALLEVFQEAHEQSVGMLHLTESINRNREEPFSSEEIQACLSRMQDDNQVMVSEGIVFLI
notes: MCM3, mouse; cDNA cloned into pFastBac1; also called WT MCM3; source: Sf9, baculovirus infected, in extract; not shown: FLAG, N-terminal, kept

Columns and labels:
[1] = target: FLAG-MCM3 (mouse MCM3 expressed in CHO-EBNALT85 cells) (mouse) (UniProt P25206); experiment: co-IP; anti-FLAG M2 beads on whole cell, nuclear and cytoplasmic extracts of FLAG-MCM3 expressing CHOEBNALT85 cells, 150 mM KCl, Western blot
[2] = target: B2; experiment: SEC; Superose 6 10/300 GL of the strep-Keap1 - FLAG-MCM3 tandem purified complex, 100 mM KCl buffer; densitometry of the Coomassie stained gel; conditions: partners not purified
[3] = target: T1, strep-Keap1 (mouse, wild type, baculovirus) (mouse, UniProt Q9Z2X8 1-624); experiment: as above; conditions: partners not purified
T1 construct: Keap1, mouse; cDNA cloned into pFastBac1; also called strep tagged Keap1; strp-Keap1; source: Sf9, baculovirus infected, in extract; not shown: Strep-tag II, N-terminal, kept
T1 sequence (Q9Z2X8 whole entry): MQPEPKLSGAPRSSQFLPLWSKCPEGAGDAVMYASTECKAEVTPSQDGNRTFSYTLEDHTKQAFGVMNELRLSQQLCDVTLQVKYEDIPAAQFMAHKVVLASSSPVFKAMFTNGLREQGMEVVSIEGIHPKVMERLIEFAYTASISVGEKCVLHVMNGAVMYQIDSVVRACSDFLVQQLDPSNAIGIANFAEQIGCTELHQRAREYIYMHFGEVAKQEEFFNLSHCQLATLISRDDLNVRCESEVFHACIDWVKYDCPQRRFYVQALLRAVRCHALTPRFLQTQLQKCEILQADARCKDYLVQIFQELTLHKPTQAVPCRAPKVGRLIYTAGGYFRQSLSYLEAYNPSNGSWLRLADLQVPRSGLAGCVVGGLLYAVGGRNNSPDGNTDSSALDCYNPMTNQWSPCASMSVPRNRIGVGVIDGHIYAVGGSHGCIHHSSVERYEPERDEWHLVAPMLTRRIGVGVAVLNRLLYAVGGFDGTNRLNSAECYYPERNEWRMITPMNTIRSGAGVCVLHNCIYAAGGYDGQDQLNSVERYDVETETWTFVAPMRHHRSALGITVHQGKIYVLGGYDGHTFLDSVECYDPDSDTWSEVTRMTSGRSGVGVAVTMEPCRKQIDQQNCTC

Q: For “Keap1 (endogenous, CHO cells) (natural protein)”, which percent of soluble MCM3 and Keap1 pulled down together [1] is on record?
A: Its percent of soluble MCM3 and Keap1 pulled down together is 5 to 10%.

B1: HA-MCM-BP (mouse, baculovirus) (natural protein, UniProt Q8R3C0 1-642, looked up)
chain: MPCGEDWLSHPLGIVQGFFAQNGVNPDWEKKVIEYFKEKLKENNAPKWVPSLNEVPLHYLKPNSFVKFRCMIQDMFDPEFYMGIYETVNQNTKARVLHFGKYRDVAECGPQQELDLSSPRSTTSERQTFYCVPVPGESSWVKEAYVNANQARVSPSTSYTPSRHKRSYEDDEDMDLQPSKQKEQHPGSRQAGGLGGLHWCGEPKRLETEASSGQQLNTLNLSSPFDLNFPLPGEKGPACLVKVYEDWDCFKVNDVLELYGVLSVDPVLSVLNSEERDASALLDPMECTDMAEEQRVHSPPASLVPRIHVILAQKLQHINPLLPTCLNKEESRSCQFVSNFMSELSPVRAELLGFLTHALLGDSLAAEYLILHLISTVYTRRDVLPLGKFTVNLSGCPQNSTFTEHLYRIIQHLVPASFRLQMTIENMNQLKLIPHKDYTANRLVSGLLQLPNNTSLVIDETLLEQGQLDTPGVHNVTALSNLITWQKVDYDFSYHQMEFPCNINVLITSEGRSLLPADCQIHLQPQLIPPNMEEYMNGLLSAVLPSVLNKFRIYLTLLRFLDYNLSDDITKAVEDDFVEMRKDDPQSITADDLHQLLVVARFLSLSVGQTTLSRERWLRAKQLELSRKARLQQQKSVNGNEL
notes: MCM-BP, mouse; cDNA cloned into pFastBac1; source: Sf9, baculovirus infected, in extract
Q: For B1, which “stoichiometry N” value [2] is on record?
A: Its value is about 1.

Q: With B2 as the molecule, how does the “stoichiometry N” value [3] read?
A: Its value is about 1.
